From the supplement of paper PMC9732359 come the findings set out here.

± gives the uncertainty stated by the source.

The data set in a line: protein stability index of a GFP-peptide fusion (yeast GPS) (PSI 1-4); higher = more stable; sorted into four equal gates, so the index is relative within each strain. In a few lines: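 Mid-log yeast cultures in leucine-free medium, carrying a pooled plasmid library, were sorted into four equal gates by their GFP/Cherry fluorescence ratio. Each plasmid expressed Cherry along with GFP fused upstream of a tiled 17-residue yeast protein peptide. Plasmids recovered from each gate were PCR-amplified and Illumina-sequenced, with reads assigned to strains by barcodes. The protein stability index was obtained by summing each gate's read frequency weighted by its gate number.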

Consider LLIRSKTEDPKGGIIAS [YML031W/NDC1], for which the protein stability index by setting is: (doa10∆) 2.37 ± 0.14; (pdr5∆) 2.36 ± 0.085; (san1∆) 2.28 ± 0.085; (ubr1∆) 2.66 ± 0.17.

With LLKHPFKAIHGSQLRLS [YCS4], the protein stability index worked out at 1.67 ± 0.046 (doa10∆), 1.62 ± 0.043 (pdr5∆), 1.64 ± 0.072 (san1∆) and 1.83 ± 0.025 (ubr1∆).

Regarding LLKKIIFEKELMYQIKK [SRB4], the protein stability index was determined as 2.8 ± 0.073 (doa10∆), 2.67 ± 0.083 (pdr5∆), 2.32 ± 0.09 (san1∆) and 2.17 ± 0.05 (ubr1∆).

For the sequence LLKLIEPYVAYGYPSYS [RPL7A], the protein stability index stood at 2.07 ± 0.05 (doa10∆), 2.22 ± 0.053 (pdr5∆), 2.2 ± 0.056 (san1∆) and 2.07 ± 0.042 (ubr1∆).

Consider LLKSNDPLLSLYNFLHK [RGR1], for which the protein stability index stood at 2.31 ± 0.056 (doa10∆), 2.23 ± 0.053 (pdr5∆), 2.54 ± 0.048 (san1∆) and 2.55 ± 0.041 (ubr1∆).

Consider LLKSTGLHPFEVAQLGS [RPB4], for which the protein stability index stood at 1.94 ± 0.12 (doa10∆), 1.81 ± 0.27 (pdr5∆) and 2.73 ± 0.2 (ubr1∆).

Take LLLITHHSWSQSDLEII [ARP9]: the protein stability index (doa10∆) was 2.36 ± 0.08, the protein stability index (pdr5∆) stood at 1.68 ± 0.048, the protein stability index (san1∆) came to 1.76 ± 0.075 and the protein stability index (ubr1∆) is 1.87 ± 0.068.

For LLLKKIIKDYVLDIVPG [SRB4], the protein stability index by setting is: (doa10∆) 2.74 ± 0.094; (pdr5∆) 2.52 ± 0.084; (san1∆) 2.33 ± 0.1; (ubr1∆) 2.71 ± 0.073.

Take LLNVSVNITKFSKFERS [SKI6]: the protein stability index reads like this: (doa10∆) 2.32 ± 0.075; (pdr5∆) 2.49 ± 0.049; (san1∆) 2.7 ± 0.06; (ubr1∆) 2.44 ± 0.039.

LLREYDILSQILYGLVD [YJL039C/NUP192] came in with a protein stability index (doa10∆) of 2.49 ± 0.081, a protein stability index (pdr5∆) of 2.06 ± 0.12, a protein stability index (san1∆) of 2.07 ± 0.11 and a protein stability index (ubr1∆) of 2.19 ± 0.064.

With LLSKIMLNLIDDVKNIL [RPN6], the protein stability index was 2.2 ± 0.13 (doa10∆), 1.4 ± 0.1 (pdr5∆), 1.25 ± 0.13 (san1∆) and 1.22 ± 0.08 (ubr1∆).

With LLSSSNFEATKKSVLKQ [COR1], the protein stability index was 2.81 ± 0.29 (doa10∆) and 2.83 ± 0.28 (ubr1∆).

Turning to LLTSAGCKNGSFTLLNQ [NUT1], the protein stability index is, setting by setting: (doa10∆) 2.21 ± 0.12; (pdr5∆) 2.32 ± 0.067; (san1∆) 2.3 ± 0.28; (ubr1∆) 2.68 ± 0.12.

In the case of LLVDIQKYNQIQKQIET [SMC2], the protein stability index stood at 1.92 ± 0.055 (doa10∆), 1.86 ± 0.05 (pdr5∆), 2.2 ± 0.081 (san1∆) and 1.65 ± 0.04 (ubr1∆).

Regarding LLVDKDANGVSLFELIV [YJL039C/NUP192], the protein stability index by setting is: (doa10∆) 3.02 ± 0.051; (pdr5∆) 3.05 ± 0.055; (san1∆) 3.07 ± 0.049; (ubr1∆) 3.25 ± 0.037.

Take LLYYIPSLELSAEYLQM [YJR042W/NUP85]: the protein stability index reads like this: (doa10∆) 1.12 ± 0.09; (pdr5∆) 2.03 ± 0.18; (san1∆) 1.45 ± 0.29; (ubr1∆) 1.15 ± 0.12.

Consider LMATEYQDIEGGFEDVE [RPB2], for which the protein stability index by setting is: (doa10∆) 3.43 ± 0.14; (pdr5∆) 3.31 ± 0.11; (san1∆) 3.49 ± 0.069; (ubr1∆) 3.44 ± 0.099.

Turning to LMEEIESLKKELQIFKT [YIL149C/MLP2], the protein stability index stood at 2.94 ± 0.094 (doa10∆), 2.96 ± 0.068 (pdr5∆), 2.82 ± 0.072 (san1∆) and 3.08 ± 0.055 (ubr1∆).

Consider LMEFLCVVSTDSTNLSD [ECM29], for which the protein stability index (doa10∆) came to 1.92 ± 0.059, the protein stability index (pdr5∆) was found to be 1.65 ± 0.056, the protein stability index (san1∆) came out at 1.84 ± 0.094 and the protein stability index (ubr1∆) stood at 1.72 ± 0.063.

As to LMLEDAVTEREVLVTPG [MCD1], the protein stability index runs as follows: (doa10∆) 1.94 ± 0.2; (san1∆) 2.16 ± 0.13; (ubr1∆) 2.18 ± 0.27.

Sequence LNDPSLKIQFILSTTLD [SIN4] registered a protein stability index (doa10∆) of 1.11 ± 0.055, a protein stability index (pdr5∆) of 1.45 ± 0.074, a protein stability index (san1∆) of 1.32 ± 0.14 and a protein stability index (ubr1∆) of 1.18 ± 0.042.

In the case of LNELSAKDKEIYNKMIG [RPN13], the protein stability index runs as follows: (doa10∆) 2.8 ± 0.092; (pdr5∆) 2.65 ± 0.11; (san1∆) 2.2 ± 0.11; (ubr1∆) 2.83 ± 0.082.

Regarding LNIDFGSDKQMFTQIYL [YML103C/NUP188], the protein stability index runs as follows: (doa10∆) 3.17 ± 0.14; (pdr5∆) 2.99 ± 0.15; (san1∆) 2.46 ± 0.12; (ubr1∆) 3.25 ± 0.066.

LNIGKNFAHSDSLSVPK [SIR4] had a protein stability index (doa10∆) of 3.17 ± 0.085, a protein stability index (pdr5∆) of 3 ± 0.075, a protein stability index (san1∆) of 3.12 ± 0.042 and a protein stability index (ubr1∆) of 3.2 ± 0.05.

Take LNIKPLLDAGCKVVAEM [SKP1]: the protein stability index is, setting by setting: (doa10∆) 2.44 ± 0.083; (pdr5∆) 2.51 ± 0.081; (san1∆) 1.85 ± 0.1; (ubr1∆) 2.47 ± 0.054.

As to LNLLSQNNTTKFHSELQ [RPN12], the protein stability index is, setting by setting: (doa10∆) 2.47 ± 0.091; (pdr5∆) 2.24 ± 0.078; (san1∆) 1.67 ± 0.12; (ubr1∆) 2.16 ± 0.12.

Take LNQINGLNNDFLFQNIN [GRR1]: the protein stability index is 1.6 ± 0.1 (doa10∆), 2.13 ± 0.088 (pdr5∆), 2.01 ± 0.11 (san1∆) and 1.8 ± 0.086 (ubr1∆).

LNRIINHMLIDSLNQLE [RGR1]: the protein stability index came out at 3.24 ± 0.15 (doa10∆), 2.96 ± 0.23 (pdr5∆), 2.89 ± 0.18 (san1∆) and 2.68 ± 0.19 (ubr1∆).

With LNRLLRLIVDPNIADYI [PRP8], the protein stability index was 1.83 ± 0.057 (doa10∆), 1.93 ± 0.05 (pdr5∆), 1.64 ± 0.091 (san1∆) and 1.95 ± 0.044 (ubr1∆).

On to LNTFGSKICLSHFSLDQ [ITC1], for which the protein stability index runs as follows: (doa10∆) 2.48 ± 0.06; (pdr5∆) 2.18 ± 0.042; (san1∆) 2.09 ± 0.095; (ubr1∆) 2.33 ± 0.039.

As to LNTLNNVVEIWVFSYLR [SIR3], the protein stability index runs as follows: (doa10∆) 1.56 ± 0.043; (pdr5∆) 1.6 ± 0.063; (san1∆) 1.42 ± 0.11; (ubr1∆) 1.58 ± 0.053.

Consider LPAAVSKSLQESGDTQE [RPC82], for which the protein stability index is, setting by setting: (doa10∆) 2.37 ± 0.096; (pdr5∆) 2.74 ± 0.11; (san1∆) 2.97 ± 0.059; (ubr1∆) 2.83 ± 0.093.

For LPDPKPLPLDLNVQVWH [ITC1], the protein stability index worked out at 2.8 ± 0.064 (doa10∆), 2.72 ± 0.051 (pdr5∆), 3.01 ± 0.063 (san1∆) and 2.55 ± 0.038 (ubr1∆).

For LPEILNVLCVNIKSNDF [ECM29], the protein stability index runs as follows: (doa10∆) 1.56 ± 0.046; (pdr5∆) 1.58 ± 0.047; (san1∆) 1.37 ± 0.088; (ubr1∆) 1.58 ± 0.035.
